Reference: PMC5573810

Key:
[1] = target: clade-C (ZM109) V1V2-ferritin nanoparticle (V1V2-FR) (HIV-1 ZM109 (clade C) | not stated) (UniProt Q9ZLI1); assay: ELISA
[2] = target: gp120-ferritin (gp120-FR) nanoparticle; assay: ELISA

## PGT121
[1]
  EC50: 0.87 µg/mL
[2]
  EC50: 0.077 µg/mL
